Columns and labels:
[1] = target: Chinese variant CD1a protein (human) (UniProt P06126); experiment: ELISA, 1 µg/ml antibody
[2] = target: Chinese variant CD1a protein (human) (UniProt P06126); experiment: ELISA, 0.1 µg/ml antibody
[3] = target: T1, human CD1a protein (pool B) (human, UniProt P06126 18-295, limits assumed); experiment: ELISA, 0.1 µg/ml antibody
T1 construct: Recombinant protein of the ELISA (coated) and the Biacore T200 titration; whole entry named; also called human CD1a pool B; full length CD1a
T1 sequence (P06126 18-295 limits assumed): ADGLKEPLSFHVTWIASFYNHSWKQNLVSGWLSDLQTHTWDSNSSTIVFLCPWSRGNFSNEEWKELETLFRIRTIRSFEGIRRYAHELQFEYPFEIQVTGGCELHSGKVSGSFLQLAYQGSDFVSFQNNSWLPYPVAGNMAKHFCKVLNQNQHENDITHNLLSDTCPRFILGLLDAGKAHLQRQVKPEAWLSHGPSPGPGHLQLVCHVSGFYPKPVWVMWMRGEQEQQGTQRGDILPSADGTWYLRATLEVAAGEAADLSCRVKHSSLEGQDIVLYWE
Procedure: (§1) CD1a-specific antibodies were identified by ELISA. […] 20 μl/well of peroxidase-conjugated goat anti-species IgG Fc-specific F(ab′)2 fragment (Jackson ImmunoResearch), diluted 1:5000 in block buffer was added and incubated at room temperature for 1 hour, followed by washing with wash buffer.
(§2) The antibodies were titrated through a dilution series and compared to a control rabbit IgG antibody.

[4] = target: T1, human CD1a protein (pool B); experiment: ELISA, 100 µg/ml antibody
Procedure: as §1, §2

[5] = target: chimeric CD1a pool B protein [human CD1a lipid binding domain, mouse CD1d Ig domain] (human; mouse, UniProt P06126 18-201; P11609 205-297, limits assumed); experiment: ELISA, 3.16 µg/ml antibody
Chain of chimeric CD1a pool B protein [human CD1a lipid binding domain, mouse CD1d Ig domain] (P06126 other isoform, or with tags, fused parts or gaps mutant limits assumed): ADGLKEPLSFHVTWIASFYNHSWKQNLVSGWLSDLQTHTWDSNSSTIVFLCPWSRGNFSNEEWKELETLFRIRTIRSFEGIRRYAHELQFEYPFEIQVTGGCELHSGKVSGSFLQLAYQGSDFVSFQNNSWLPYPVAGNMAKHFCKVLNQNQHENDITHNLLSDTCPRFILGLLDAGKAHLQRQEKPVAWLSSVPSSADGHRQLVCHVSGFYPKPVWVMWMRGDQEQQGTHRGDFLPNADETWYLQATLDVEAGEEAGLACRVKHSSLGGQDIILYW
Procedure: as §1
The antibodies were titrated through a dilution series and compared to a control rabbit IgG antibody. […] Data shown for purified antibodies.

[6] = target: T1, human CD1a protein (pool B); experiment: ELISA, 0.316 µg/ml antibody
Procedure: as §1, §2

[7] = target: T2, human CD1b expressed on HEK-293 cells (human, UniProt P29016 18-333; P61769 21-119); experiment: flow cytometry, HEK-293 cells
T2 construct: also called HEK - CD1b
Procedure: (§3) Binding to proteins expressed on HEK, C1R and MOLT4 cell lines was assessed. […] The C1R-CD1a, C1R-empty vector and MOLT4 cell lines were washed in 1×PBS on the day required. All cell lines were counted and resuspended in 1×PBS and then stained for 30 minutes at 37° C. using the DiI or DiO cellular stains (Invitrogen). Cells were washed with flow cytometry buffer (1% bovine serum albumin, 2 mM EDTA and 0.1% sodium azide in PBS) before mixing 2 DiI-stained and DiO-stained populations together. The cells (20 μl/well) were then added to dilutions of antibody sample (B cell culture supernatant, TAP supernatant, clone supernatant, purified antibody solution) (20 μl/well) and incubated for 1 hour at 4° C. in a flow cytometry assay plate, before being washed with flow cytometry buffer. 10 μl/well of Alexafluor647-conjugated goat anti-species IgG Fc-specific F(ab′)2 fragment (Jackson ImmunoResearch), diluted 1:2500 in flow cytometry buffer, was added and incubated at 4° C. for 30 minutes, followed by washing with wash buffer. The fluorescence intensity was then measured on an iQue screener PLUS.
(§4) HEK-293 cells were transiently transfected with human CD1a, CD1b, CD1c or CD1d and co-transfected with human β2M.

[8] = target: T3, human CD1c expressed on HEK-293 cells (human, UniProt P29017 18-333; P61769 21-119); experiment: flow cytometry, HEK-293 cells
T3 construct: also called HEK - CD1c
Procedure: as §3, §4

[9] = target: T4, human CD1d expressed on HEK-293 cells (human, UniProt P15813 20-335; P61769 21-119); experiment: flow cytometry, HEK-293 cells
T4 construct: also called HEK - CD1d
Procedure: as §3, §4

[10] = target: T5, human CD1a expressed on cells (human, UniProt P06126 17-327; P61769 21-119); experiment: flow cytometry, C1R cells, 1 µg/ml antibody
T5 construct: also called HEK - CD1a; C1R - CD1a
Procedure: as §3
(§5) Binding was quantified as fold change in fluorescence intensity geomean over background assessed by flow cytometry.

[11] = target: T5, human CD1a expressed on cells; experiment: flow cytometry, MOLT4 cells, 1 µg/ml antibody
Procedure: (§6) CD1a-specific antibodies were identified by flow cytometry. Binding to proteins expressed on HEK, C1R and MOLT4 cell lines was assessed. […] The C1R-CD1a, C1R-empty vector and MOLT4 cell lines were washed in 1×PBS on the day required. All cell lines were counted and resuspended in 1×PBS and then stained for 30 minutes at 37° C. using the DiI or DiO cellular stains (Invitrogen). Cells were washed with flow cytometry buffer (1% bovine serum albumin, 2 mM EDTA and 0.1% sodium azide in PBS) before mixing 2 DiI-stained and DiO-stained populations together. The cells (20 μl/well) were then added to dilutions of antibody sample (B cell culture supernatant, TAP supernatant, clone supernatant, purified antibody solution) (20 μl/well) and incubated for 1 hour at 4° C. in a flow cytometry assay plate, before being washed with flow cytometry buffer. 10 μl/well of Alexafluor647-conjugated goat anti-species IgG Fc-specific F(ab′)2 fragment (Jackson ImmunoResearch), diluted 1:2500 in flow cytometry buffer, was added and incubated at 4° C. for 30 minutes, followed by washing with wash buffer. The fluorescence intensity was then measured on an iQue screener PLUS.
as §5

[12] = target: T5, human CD1a expressed on cells; experiment: flow cytometry, C1R cells, 0.316 µg/ml antibody
Procedure: as §3, §5

[13] = target: T5, human CD1a expressed on cells; experiment: flow cytometry, MOLT4 cells, 0.1 µg/ml antibody
Procedure: as §6, §5

[14] = target: T5, human CD1a expressed on cells; experiment: flow cytometry, HEK-293 cells, 100 µg/ml antibody
Procedure: as §3, §4

[15] = target: T2, human CD1b expressed on HEK-293 cells; experiment: flow cytometry, HEK-293 cells, 100 µg/ml antibody
Procedure: as §3, §4

[16] = target: T3, human CD1c expressed on HEK-293 cells; experiment: flow cytometry, HEK-293 cells, 100 µg/ml antibody
Procedure: as §3, §4

[17] = target: T4, human CD1d expressed on HEK-293 cells; experiment: flow cytometry, HEK-293 cells, 100 µg/ml antibody
Procedure: as §3, §4

[18] = target: T6, Cynomolgus monkey CD1a expressed on HEK-293 cells (Cynomolgus monkey, UniProt A0A2K5VQ68 17-326); experiment: flow cytometry, HEK-293 cells, 0.1 µg/ml antibody
T6 sequence (A0A2K5VQ68 entry or part of it): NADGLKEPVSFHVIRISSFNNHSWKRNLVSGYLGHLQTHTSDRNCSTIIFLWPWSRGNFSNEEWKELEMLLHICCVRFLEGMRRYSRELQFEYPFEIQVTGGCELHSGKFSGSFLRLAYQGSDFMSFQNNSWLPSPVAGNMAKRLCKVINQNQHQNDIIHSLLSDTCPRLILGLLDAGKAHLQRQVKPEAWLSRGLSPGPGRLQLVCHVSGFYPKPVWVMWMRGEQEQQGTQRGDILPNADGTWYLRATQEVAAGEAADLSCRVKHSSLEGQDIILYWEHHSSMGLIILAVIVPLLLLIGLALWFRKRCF
Procedure: as §3, §5

[19] = target: T5, human CD1a expressed on cells; experiment: flow cytometry, HEK-293 cells, 3.16 µg/ml antibody
Procedure: as §3, §4

[20] = target: T2, human CD1b expressed on HEK-293 cells; experiment: flow cytometry, HEK-293 cells, 3.16 µg/ml antibody
Procedure: as §3, §4

[21] = target: T4, human CD1d expressed on HEK-293 cells; experiment: flow cytometry, HEK-293 cells, 3.16 µg/ml antibody
Procedure: as §3, §4

[22] = target: T6, Cynomolgus monkey CD1a expressed on …; experiment: flow cytometry, HEK-293 cells, 0.01 µg/ml antibody
Procedure: as §3, §5

[23] = target: T5, human CD1a expressed on cells; experiment: flow cytometry, HEK-293 cells, 0.0316 µg/ml antibody
Procedure: as §3, §4

[24] = target: T2, human CD1b expressed on HEK-293 cells; experiment: as above
Procedure: as §3, §4

[25] = target: T3, human CD1c expressed on HEK-293 cells; experiment: as above
Procedure: as §3, §4

[26] = target: T4, human CD1d expressed on HEK-293 cells; experiment: as above
Procedure: as §3, §4

[27] = target: T1, human CD1a protein (pool B); experiment: SPR (Biacore T200), antibody captured, human CD1a titrated, 1:1 binding model
Procedure: The affinity of the purified antibodies to human CD1a was assessed using a Biacore T200 instrument (GE Healthcare) by capturing the antibody to an immobilized anti-species IgG F(ab′)2 followed by titration of human CD1a. Affinipure Goat anti-species IgG-F(ab′)2 fragment specific (Jackson ImmunoResearch) was immobilized on a CM5 Sensor Chip (GE Healthcare) via amine coupling chemistry to a capture level of ˜5000 response units (RUs). HBS-EP+ buffer (10 mM HEPES pH 7.4, 0.15 M NaCl, 3 mM EDTA, 0.05% Surfactant P20, GE Healthcare) was used as the running buffer with a flow rate of 10 μL/min. A 10 μL injection of test antibody at 0.5 μg/mL was used for capture by the immobilized Goat Anti-species Fab.
The surface was regenerated between cycles by injection of 2×10 μL of 40 mM HCl, interspersed by a 10 μL injection of 5 mM NaOH at flowrate of 10 μL/min. Background subtraction binding curves were analyzed using the Biacore T200 evaluation software following standard procedures. Kinetic parameters were determined from the fitting algorithm. This assay was performed at the clone supernatant and purified antibody stage.
Affinity was required to be <100 nM to be considered for progression.

Chain of Chinese variant CD1a protein (human) (P06126 18-295, change not shown): as the sequence (P06126 18-295 limits assumed) above

B1: 116 (VR12117) (antibody, V domains shown)
VH: QSVEESGGRLVTPGTPLTLTCTVSGFSLSNYAMSWVRQAPGKGLEWIGIIYTTGFTYYASWVKGRFTISKTSTTVDLKITSPTTEDTATYFCARGLATYVSPPTRLDLWGQGTLVTVSS
VL: AQVLTQTPSPVSAAVGGTVTINCQASQSIYNSKNLAWYQQKPGQPPKLLIYSASTLASGVPSRFKGSGSGTQFTLTISDLECDDAATYYCQGEFSCSSVDCATFGGGTEVVVK
notes: also called OX116
In the case of B1, the Optical Density (OD) [1] is reported as 1.51 OD, the Optical Density (OD) [2] is reported as 1.53 OD and the “Optical Density (OD)” value [3] is reported as 1.07 OD. For the same binder, the “Optical Density (OD)” value [4] was 1.15 OD, the “Optical Density (OD)” value [5] was 1.38 OD and the “Optical Density (OD)” value [6] was 1.15 OD. B1: no binding (tested: 100 µg/ml (highest tested)) [7]; no binding (tested: 100 µg/ml (highest tested)) [8]; no binding (tested: 100 µg/ml (highest tested)) [9]. For the same binder, the “Fluorescence Intensity Geomean (normalized to background)” value [10] was 28.7 fold over background, the “Fluorescence Intensity Geomean (normalized to background)” value [11] was 30.6 fold over background and the “Fluorescence Intensity Geomean (normalized to background)” value [12] was 27.5 fold over background. The “Fluorescence Intensity Geomean (normalized to background)” value [13] was 22.6 fold over background, the “Fluorescence Intensity Geomean (normalized to background)” value [14] was 3.9 fold over background and the “Fluorescence Intensity Geomean (normalized to background)” value [15] was 1.1 fold over background. For the same binder, the “Fluorescence Intensity Geomean (normalized to background)” value [16] was 1 fold over background, the “Fluorescence Intensity Geomean (normalized to background)” value [17] was 1 fold over background and the “Fluorescence Intensity Geomean (normalized to background)” value [18] was 1 fold over background. For the same binder, the “Fluorescence Intensity Geomean (normalized to background)” value [19] was 21.9 fold over background, the “Fluorescence Intensity Geomean (normalized to background)” value [20] was 1 fold over background and the “Fluorescence Intensity Geomean (normalized to background)” value [21] was 1.1 fold over background. The “Fluorescence Intensity Geomean (normalized to background)” value [22] was 1 fold over background, the “Fluorescence Intensity Geomean (normalized to background)” value [23] was 15.7 fold over background and the “Fluorescence Intensity Geomean (normalized to background)” value [24] was 1 fold over background. The “Fluorescence Intensity Geomean (normalized to background)” value [25] was 1 fold over background, the “Fluorescence Intensity Geomean (normalized to background)” value [26] was 1 fold over background and the Kd [27] was 2.89 nM. For the same binder, the koff [27] was 0.0014 s⁻¹ and the kon [27] was 483000 M⁻¹ s⁻¹.
